B1: TPR t1 (parent)
chain: GACCAAUCUGCCCUCAGAGCUCGAGAACAUCUUCGGAUGCAGAGGAGGCAGGCUUCGGUGGCGCGAUAGCGCCAACGUCCUCAACCUCCAAUGCAUCCCACCACAUGAUGAUGCCUGAAGAGCCUUGGUUUUUUG

Variants of: B1
Assay: polymerase ribozyme fitness, log enrichment relative to wild type (log ratio); higher = more active; in vitro selection for triplet polymerase activity
Summary of the method: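 Each subunit of a heterodimeric triplet polymerase ribozyme was represented by a PCR-built, transcribed mutant library that underwent triplicate single-round in vitro selection with frozen incubation at −7 °C. Extended constructs were recovered by gel excision, streptavidin-bead capture and RT-PCR, and Illumina sequencing of input and output libraries kept genotypes with ≥10 input reads and ≥1 read per output. Fitness is the logarithm of genotype enrichment relative to wild-type enrichment, from inverse-variance-weighted replicate averages, with a logarithm base of 2.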

Variant	polymerase ribozyme fitness (log ratio)
C89A C124G	-0.00331
C94U U130G	-1.07
A90G C101G G113A G117C	-5.96
C89G C94U	-0.951
C89G C94A	-2.52
G93C C98U A121U	1.01
G93U U109C	-5.62
C89A G135U	-2.26
C89A U92G U116G	-5.83
C89U U129G	-1.72
A90G A121C	1.62
C94A A121U	1.37
C89A A100U	-2.67
U96A G113A	-1.86
A91C G120U	-1.5
C89A G127C U133G	-4.42
A95C G113U	-3.39
G93A U131C	-0.974
U96C A118U U129C	-0.593
A90C A121C	0.757
C89A U106A G113C C123G	-1.57

Variant	polymerase ribozyme fitness (log ratio)
C89U G117A	-2.43
C89U G120A U129G	-1.07
U92G G120C	-1.74
U96A G120U G128U	-1.74
A90G C102A	-1.25
A90U U92C U96C	-2.06
C89A C94U U116A	-5.8
A90G U112G U116C	-0.0889
C97A G117U	-5.67
C88U U129A	-0.777
A91U A111G	-1.26
A91G G113C G120A	-3.31
A95U U116G A118G	-2.78
U92A A121G	-0.696
U92A A121U	-0.332
C89A G117A A121U	-0.932
G93C G117U	-2.87
C88U G110A	-1.46
A91U U106G	-4.85
A91G C101U	-1.08
G93U A100U	-1.72

Variant	polymerase ribozyme fitness (log ratio)
C89G C115G G128A	-6.15
G93A A118G G135U	-1.11
C89A U125A	-1.17
C89G G122A	-3.38
C94A U125G	-1.1
C94A U125A	-0.423
C89G G93C	-3.36
C94G C114G G120C	-4.95
G93A C101U C123U	0.532
G93C C114U	-1.65
G93C C114A	-1.83
A90U G93A G110A U131G	-5.42
U92G G110A	-5.46
A95C G120U U129A	-1.76
G93A U109A	-5.41
G93A U132C	-0.827
U96A C104A	-3.3
U96A C104U	-0.116
G93U G110U	-2.46
A91C C104A	-3.58
C89G G120A	-1.58

Variant	polymerase ribozyme fitness (log ratio)
G93U U112G G120C C123U	-2.5
A95G G135U	-0.746
A91C U112A	-0.47
A91G G120U	0.174
A90U G113A	-1.1
A90U G113C	-2.53
A91C A95U C101A	-4.41
G93C G120A	1.58
U92G A121C C123G	-0.349
C94U U112A	1.59
A91U U112G	-1.73
C94G C114U	-3.17
C94U C123A	0.36
C88U U116A	-3.45
C88U U116C	0.189
C94A G127U	-1.5
A95U C102U C104A G110C G128U	-5.5
U96C	0.0976
U96G	-0.532
U96A	-0.895
C89A C123A	-1.82

From the RNAGym collection of RNA variant scans (doi:10.1073/pnas.2313332121)
